Positions count from the first letter of the chain named. In names and notes the source's numbering stands.
T1: ZNRF1 full-length (UniProt Q8ND25 1-227)
T1 construct: ZNRF1, RING E3 ubiquitin ligase, full-length (ends at residue 227); The C-terminal strep-tag II is called non-cleavable; also called ZNRF1^FL; source: E. coli Rossetta2 (DE3), purified (HisTrap, StrepTrap HP, desalted); not shown: strep-tag II, C-terminal, kept
T1 sequence (looked up): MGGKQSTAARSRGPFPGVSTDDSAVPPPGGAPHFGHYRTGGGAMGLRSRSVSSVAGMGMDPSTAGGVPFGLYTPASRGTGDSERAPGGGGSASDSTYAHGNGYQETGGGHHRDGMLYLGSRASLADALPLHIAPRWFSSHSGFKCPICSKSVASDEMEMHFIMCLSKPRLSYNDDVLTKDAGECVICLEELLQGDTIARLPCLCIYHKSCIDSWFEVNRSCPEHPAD

B1: Ube2N (enzyme, UniProt P61088 1-152, looked up)
chain: MAGLPRRIIKETQRLLAEPVPGIKAEPDESNARYFHVVIAGPQDSPFEGGTFKLELFLPEEYPMAAPKVRFMTKIYHPNVDKLGRICLDILKDKWSPALQIRTVLLSIQALLSAPNPDDPLANDVAEQWKTNEAQAIETARAWTRLYAMNNI
notes: Ube2N, ubiquitin-conjugating enzyme E2 N; also called wtUbe2N; source: E. coli Rossetta2 (DE3), purified (ion exchange, SEC)
B2: Ube2N/Ube2V1 complex (complex)
chain 1: B1 chain
chain 2: not shown
notes: Ube2N, ubiquitin-conjugating enzyme E2 N; Ube2V1, ubiquitin-conjugating enzyme E2 variant 1; also called Ube2N/V1; source: E. coli Rossetta2 (DE3), each purified, mixed in stoichiometric amounts, complex isolated by SEC
B3: ZNRF1^RING (residues 166–227) (domain or fragment, UniProt Q8ND25 166-227, looked up)
chain: SKPRLSYNDDVLTKDAGECVICLEELLQGDTIARLPCLCIYHKSCIDSWFEVNRSCPEHPAD
notes: ZNRF1, RING E3 ubiquitin ligase, residues 166-227 (RING domain); also called RING domain of ZNRF1; source: E. coli Rossetta2 (DE3), purified (HisTrap, SEC)
B4: Ube2N^S96R (enzyme, UniProt P61088 1-152, looked up)
chain: B1 chain with S96R
notes: Ube2N, ubiquitin-conjugating enzyme E2 N, with S96R; source: E. coli Rossetta2 (DE3), purified (ion exchange, SEC)
B5: ZNRF1^(CTD, E183A) (domain or fragment, UniProt Q8ND25 139-227, looked up)
chain: SHSGFKCPICSKSVASDEMEMHFIMCLSKPRLSYNDDVLTKDAGACVICLEELLQGDTIARLPCLCIYHKSCIDSWFEVNRSCPEHPAD
notes: ZNRF1, RING E3 ubiquitin ligase, residues 139-227 with E183A; also called ZRNF1^CTD,E183A; E183A mutant; source: E. coli Rossetta2 (DE3), purified
B6: ZNRF1^CTD (C-terminal domain of ZNRF1, residues 139–227) (domain or fragment, UniProt Q8ND25 139-227, looked up)
chain: B5 chain with A45E
notes: ZNRF1, RING E3 ubiquitin ligase, residues 139-227 of the full-length protein (ZnF and RING domains); also called ZNRF1 C-terminal domain; ZRNF1^CTD; source: E. coli Rossetta2 (DE3), purified (HisTrap, SEC)
B7: Ube2N^A98T (enzyme, UniProt P61088 1-152, looked up)
chain: B1 chain with A98T
notes: Ube2N, ubiquitin-conjugating enzyme E2 N, with A98T; source: E. coli Rossetta2 (DE3), purified (ion exchange, SEC)
B8: Ube2N^R14E (enzyme, UniProt P61088 1-152, looked up)
chain: B1 chain with R14E
notes: Ube2N, ubiquitin-conjugating enzyme E2 N, with R14E; source: E. coli Rossetta2 (DE3), purified (ion exchange, SEC)
B9: Ube2N^R14D (enzyme, UniProt P61088 1-152, looked up)
chain: B1 chain with R14D
notes: Ube2N, ubiquitin-conjugating enzyme E2 N, with R14D; source: E. coli Rossetta2 (DE3), purified (ion exchange, SEC)
B10: Ube2N^R14A (enzyme, UniProt P61088 1-152, looked up)
chain: B1 chain with R14A
notes: Ube2N, ubiquitin-conjugating enzyme E2 N, with R14A; source: E. coli Rossetta2 (DE3), purified (ion exchange, SEC)

Assays:
Settings in all cases: both partners purified
[1] = molecular target: B6; assay: ITC; ZNRF1^CTD in the cell, Ube2N in the syringe; 25°C; Na-phosphate pH 8.0, 300 mM NaCl; single site model
[2] = molecular target: B3; assay: ITC; ZNRF1 construct (10–30 µM) in the cell, E2 in the syringe; 25°C; 20 mM sodium phosphate pH 8.0, 150 mM NaCl; single site model
[3] = molecular target: B6; assay: as above
ZNRF1 full-length = molecular target: T1, ZNRF1 full-length; assay: as above
ZNRF1^(CTD, E183A) = molecular target: B5; assay: as above
[4] = molecular target: B6; assay: ITC; ZNRF1^CTD in the cell, Ube2N in the syringe; 25°C; Na-phosphate pH 8.0, 450 mM NaCl; single site model
Ube2N [5] = molecular target: B1; assay: ITC; ZNRF1 construct (10–30 µM) in the cell, E2 in the syringe; 25°C; 20 mM sodium phosphate pH 8.0, 150 mM NaCl; single site model
Ube2N [6] = molecular target: B1; assay: ITC; ZNRF1^CTD in the cell, Ube2N in the syringe; 25°C; Na-phosphate pH 8.0, 300 mM NaCl; single site model
Ube2W = molecular target: T2, Ube2W (UniProt Q96B02 1-151); assay: ITC; ZNRF1 construct (10–30 µM) in the cell, E2 in the syringe; 25°C; 20 mM sodium phosphate pH 8.0, 150 mM NaCl; single site model
T2 construct: Ube2W, ubiquitin-conjugating enzyme E2 W; source: E. coli Rossetta2 (DE3), purified (ion exchange, SEC)

Ube2N^S96R = molecular target: B4; assay: as above
Ube2D2 = molecular target: T3, Ube2D2 (UniProt P62837 1-147); assay: as above
T3 construct: Ube2D2, ubiquitin-conjugating enzyme E2 D2; also called wtUbe2D2; wild-type Ube2D2; source: E. coli Rossetta2 (DE3), purified (ion exchange, SEC)

Ube2N^R14A = molecular target: B10; assay: as above
Ube2N^R14E = molecular target: B8; assay: as above
Ube2N^A98T = molecular target: B7; assay: as above
Ube2N/Ube2V1 complex = molecular target: B2; assay: as above
Ube2N^R14D = molecular target: B9; assay: as above
Ube2N [7] = molecular target: B1; assay: ITC; ZNRF1^CTD in the cell, Ube2N in the syringe; 25°C; Na-phosphate pH 8.0, 450 mM NaCl; single site model

Ube2N/Ube2V1 complex, sequence (Q13404 whole entry, one chain of several): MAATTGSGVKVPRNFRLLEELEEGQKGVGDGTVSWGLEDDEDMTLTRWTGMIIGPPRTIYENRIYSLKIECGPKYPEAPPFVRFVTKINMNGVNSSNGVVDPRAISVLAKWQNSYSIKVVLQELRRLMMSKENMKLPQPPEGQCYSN

B1
dH [1]: -9.63 kcal/mol
stoichiometry N [1]: 0.984
dH [2]: -10.9 kcal/mol
stoichiometry N [2]: 0.913
dH [3]: -10.5 kcal/mol
stoichiometry N [3]: 0.915
Kd (ZNRF1 full-length): 49.5 nM
dH (ZNRF1 full-length): -9.17 kcal/mol
stoichiometry N (ZNRF1 full-length): 0.842
dH (ZNRF1^(CTD, E183A)): -9.42 kcal/mol
stoichiometry N (ZNRF1^(CTD, E183A)): 0.848
dH [4]: -9.26 kcal/mol
stoichiometry N [4]: 0.96

B2
dH [3]: -10.2 kcal/mol
stoichiometry N [3]: 1.04

B3
Kd (Ube2N [5]): 49.4 nM

B4
dH [3]: -5.64 kcal/mol
stoichiometry N [3]: 0.828

B5
Kd (Ube2N [5]): 459 nM

B6
Kd (Ube2N [6]): 171 nM
Kd (Ube2W): 1090 nM
Kd (Ube2N^S96R): 203 nM
Kd (Ube2D2): 1130 nM
Kd (Ube2N [5]): 38.8 nM
Kd (Ube2N^R14A): 320 nM
Kd (Ube2N^R14E): 1080 nM
Kd (Ube2N^A98T): 408 nM
Kd (Ube2N/Ube2V1 complex): 39.2 nM
Kd (Ube2N^R14D): 948 nM
Kd (Ube2N [7]): 225 nM

B7
dH [3]: -9.62 kcal/mol
stoichiometry N [3]: 1.05

B8
dH [3]: -8.54 kcal/mol
stoichiometry N [3]: 0.854

B9
dH [3]: -8.38 kcal/mol
stoichiometry N [3]: 0.966

B10
dH [3]: -8.69 kcal/mol
stoichiometry N [3]: 0.958

Source: article PMC5941314, “Structural insights into the nanomolar affinity of RING E3 ligase ZNRF1 for Ube2N and its functional implications” (Biochemical Journal, 2018)
